# From FireProtDB (doi:10.1002/pro.370)
# “And” between values parts separate entries of the source, which are not always exact repeats. Equal values may be shown once.
# B1: Guanyl-specific ribonuclease Sa wild type, P05798 (protein)
# chain: DVSGTVCLSALPPEATDTLNLIASDGPFPYSQDGVVFQNRESVLPTQSYGYYHEYTVITPGARTRGTRRIITGEATQEDYYTGDHYATFSLIDQTC
# B2: Variable large protein wild type, O06878 (protein)
# chain: MKKISSAILLTTFFVFINCKSQVADKDDPTNKFYQSVIQLGNGFLDVFTSFGGLVAEAFGFKSDPKKSDVKTYFTTVAAKLEKTKTDLNSLPKEKSDISSTTGKPDSTGSVGTAVEGAIKEVSELLDKLVKAVKTAEGASSGTAAIGEVVADADAAKVADKASVKGIAKGIKEIVEAAGGSEKLKAVAAAKGENNKGAGKLFGKAGAAAHGDSEAASKAAGAVSAVSGEQILSAIVTAADAAEQDGKKPEEAKNPIAAAIGDKDGGAEFGQDEMKKDDQIAAAIALRGMAKDGKFAVKDGEKEKAEGAIKGAAESAVRKVLGAITGLIGDAVSSGLRKVGDSVKAASKETPPALNK
# Settings: 25 °C, Urea, CD, whole UniProt chain shown
# [1] = Kitasatospora aureofaciens, pH 3, Glycine 30 mM
# [2] = Kitasatospora aureofaciens, pH 7, MOPS 30 mM
# [3] = Borreliella burgdorferi, pH 7, MOPS 30 mM
Protein,denaturant m value [1] [kcal/mol/M],denaturant midpoint (higher = more stable) [1] [M],unfolding free energy [1] [kcal/mol],denaturant m value [2],denaturant midpoint (higher = more stable) [2],unfolding free energy [2],denaturant m value [3] [kcal/mol/M],denaturant midpoint (higher = more stable) [3] [M],unfolding free energy [3] [kcal/mol]
B1,1.63,1.6,2.6,1 kcal/mol/M and 0.94 kcal/mol/M,6.4 M and 6.45 M,6.4 kcal/mol and 6.1 kcal/mol,,,
B2,,,,,,,3.86,1.19,4.6
